For assay [1], the target named is T1, Human RAD54 (purified) (human, UniProt Q92698 1-747).
T1 construct: RAD54, human cDNA inserted into pFastBac HTc; purification details are in the Supplementary Methods; also called purified RAD54; source: recombinant human RAD54 baculovirus (pFastBac HTc vector), purified; details in Supplementary Methods
T1 sequence (looked up): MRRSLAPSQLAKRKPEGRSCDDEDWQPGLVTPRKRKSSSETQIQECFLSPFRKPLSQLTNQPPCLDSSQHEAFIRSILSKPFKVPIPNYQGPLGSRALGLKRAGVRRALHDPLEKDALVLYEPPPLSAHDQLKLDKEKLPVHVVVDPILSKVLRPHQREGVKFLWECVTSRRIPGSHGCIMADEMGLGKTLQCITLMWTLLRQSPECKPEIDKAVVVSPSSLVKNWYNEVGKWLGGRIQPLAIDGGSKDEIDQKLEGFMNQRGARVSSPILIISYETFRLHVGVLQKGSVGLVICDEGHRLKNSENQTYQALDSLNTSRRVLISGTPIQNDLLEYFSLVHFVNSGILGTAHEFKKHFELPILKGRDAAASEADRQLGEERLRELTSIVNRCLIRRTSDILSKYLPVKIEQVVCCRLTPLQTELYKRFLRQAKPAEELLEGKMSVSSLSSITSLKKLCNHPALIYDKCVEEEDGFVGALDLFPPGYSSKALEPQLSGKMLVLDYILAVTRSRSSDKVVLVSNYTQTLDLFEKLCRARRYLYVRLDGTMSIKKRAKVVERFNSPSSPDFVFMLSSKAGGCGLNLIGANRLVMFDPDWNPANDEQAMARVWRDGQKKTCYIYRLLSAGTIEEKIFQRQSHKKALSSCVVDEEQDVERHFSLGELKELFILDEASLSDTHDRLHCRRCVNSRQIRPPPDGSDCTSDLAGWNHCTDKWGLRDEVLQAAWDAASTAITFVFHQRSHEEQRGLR
Kind of assay: pull-down; Nap1-conjugated beads with purified RAD51 alone or purified RAD54 alone; SDS-PAGE with Coomassie Brilliant Blue staining. To be noted: both partners purified.

Assay [2] addresses T1, Human RAD54 (purified). Kind of assay: native gel or EMSA; Nap1 or mutant incubated with the indicated amounts of RAD54; 5% native PAGE with Coomassie Brilliant Blue staining; RAD54 alone does not enter the gel. To be noted: both partners purified. (In general: In EMSA bound probe runs differently from free probe, usually more slowly.)

The values that follow come from paper PMC4010968, “Nap1 stimulates homologous recombination by RAD51 and RAD54 in higher-ordered chromatin containing histone H1” (Scientific Reports, 2014).

Numbering of substitutions follows the chain as printed. Names may count otherwise.

B1: Human Nap1 (purified, wild type) (natural protein, UniProt P55209 1-391, looked up)
chain: MADIDNKEQSELDQDLDDVEEVEEEETGEETKLKARQLTVQMMQNPQILAALQERLDGLVETPTGYIESLPRVVKRRVNALKNLQVKCAQIEAKFYEEVHDLERKYAVLYQPLFDKRFEIINAIYEPTEEECEWKPDEEDEISEELKEKAKIEDEKKDEEKEDPKGIPEFWLTVFKNVDLLSDMVQEHDEPILKHLKDIKVKFSDAGQPMSFVLEFHFEPNEYFTNEVLTKTYRMRSEPDDSDPFSFDGPEIMGCTGCQIDWKKGKNVTLKTIKKKQKHKGRGTVRTVTKTVSNDSFFNFFAPPEVPESGDLDDDAEAILAADFEIGHFLRERIIPRSVLYFTGEAIEDDDDDYDEEGEEADEEGEEEGDEENDPDYDPKKDQNPAECKQQ
notes: Nap1 (histone chaperone, nucleosome assembly protein 1), human; also called purified Nap1; wild type Nap1
B1: the binding result in the assay with Human RAD54 (purified) [1] was “binds”.

B2: Nap1(E215,219,222,227K) mutant (natural protein, human, UniProt P55209 1-391, looked up)
chain: B1 chain with E215K, E219K, E222K, E227K
notes: Nap1, human, with Glu215, Glu219, Glu222 and Glu227 replaced by Lys; A trace amount of a read-through product was present as a contaminant in the purified fraction; also called Nap1(E215K,E219K,E222K,E227K) mutant; Nap1 mutant
Take B2: the binding result with Human RAD54 (purified) [2] was “binds”.
